Reference: the supplement of paper PMC10065799, “High-throughput profiling of sequence recognition by tyrosine kinases and SH2 domains using bacterial peptide display” (eLife, 2023)

Tests used:
Grb2 SH2 = Grb2 SH2 (UniProt P62993); experiment: SH2 binding enrichment of the phosphorylated peptide, bacterial display (enrichment ratio); higher = better substrate or ligand; peptides without Tyr show the background
SHP2-C SH2 = experiment: as above
c-Src SH2 = experiment: as above
c-Abl (mouse) = experiment: phosphorylation enrichment, bacterial display (enrichment ratio); higher = better substrate or ligand; peptides without Tyr show the background
AncSZ = experiment: as above
Jak2 = Jak2 (UniProt O60674); experiment: as above
FGFR3 = FGFR3 (UniProt P22607); experiment: as above
EPHB1 = EPHB1 (UniProt P54762); experiment: as above
Fer (mouse) = experiment: as above
Hck = Hck (UniProt P08631); experiment: as above
Fyn = Fyn (UniProt P06241); experiment: as above
MERTK = MERTK (UniProt Q12866); experiment: as above
FGFR1 = FGFR1 (UniProt P11362); experiment: as above
EPHB2 = EPHB2 (UniProt P29323); experiment: as above
Fes = Fes (UniProt P07332); experiment: as above
c-Src = experiment: as above
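Wherever SH2 binding enrichment of the phosphorylated peptide, bacterial display is given: peptide library displayed on the E. coli surface as eCPX fusions, selected cells deep-sequenced, score is each peptide's frequency after selection divided by its frequency in the input.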
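Wherever phosphorylation enrichment, bacterial display is given: 11-residue human phosphosite peptides and single-mutation variants displayed on the E. coli surface, counted by deep sequencing, each peptide's frequency after selection divided by its frequency in the unselected input library; frequency after pTyr selection over input frequency; kinase dosed for 20-30% of maximal phosphorylation in three min.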

Grb2 SH2, sequence (P62993 whole entry, looked up): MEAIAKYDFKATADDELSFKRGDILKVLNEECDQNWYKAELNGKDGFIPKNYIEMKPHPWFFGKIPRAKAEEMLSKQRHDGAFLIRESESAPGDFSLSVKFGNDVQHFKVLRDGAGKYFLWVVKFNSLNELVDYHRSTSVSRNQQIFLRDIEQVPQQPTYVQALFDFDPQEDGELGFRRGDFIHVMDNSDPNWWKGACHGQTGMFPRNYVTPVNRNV
Fes, sequence (P07332 whole entry, looked up): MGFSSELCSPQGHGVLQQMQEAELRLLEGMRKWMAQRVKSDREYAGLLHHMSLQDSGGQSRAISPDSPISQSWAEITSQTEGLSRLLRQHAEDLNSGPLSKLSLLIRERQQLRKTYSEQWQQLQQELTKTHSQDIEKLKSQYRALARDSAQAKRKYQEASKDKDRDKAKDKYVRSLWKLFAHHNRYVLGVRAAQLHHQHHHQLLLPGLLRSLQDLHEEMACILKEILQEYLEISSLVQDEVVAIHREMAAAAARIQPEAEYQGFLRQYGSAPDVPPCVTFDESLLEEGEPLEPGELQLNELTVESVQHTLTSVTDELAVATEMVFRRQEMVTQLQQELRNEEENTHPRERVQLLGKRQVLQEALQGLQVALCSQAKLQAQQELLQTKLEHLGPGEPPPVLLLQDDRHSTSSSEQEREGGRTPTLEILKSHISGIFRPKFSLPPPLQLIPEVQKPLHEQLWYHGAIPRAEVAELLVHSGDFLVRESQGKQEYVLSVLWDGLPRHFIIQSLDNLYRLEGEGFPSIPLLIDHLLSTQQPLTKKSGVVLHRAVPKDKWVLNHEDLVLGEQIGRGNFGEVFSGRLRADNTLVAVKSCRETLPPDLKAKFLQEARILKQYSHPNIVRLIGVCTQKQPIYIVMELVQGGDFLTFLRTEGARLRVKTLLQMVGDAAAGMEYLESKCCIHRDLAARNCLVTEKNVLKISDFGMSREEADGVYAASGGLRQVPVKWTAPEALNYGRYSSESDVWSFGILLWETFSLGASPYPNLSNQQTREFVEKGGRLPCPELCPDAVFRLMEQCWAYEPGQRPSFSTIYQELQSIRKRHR
FGFR3, sequence (P22607 whole entry, looked up): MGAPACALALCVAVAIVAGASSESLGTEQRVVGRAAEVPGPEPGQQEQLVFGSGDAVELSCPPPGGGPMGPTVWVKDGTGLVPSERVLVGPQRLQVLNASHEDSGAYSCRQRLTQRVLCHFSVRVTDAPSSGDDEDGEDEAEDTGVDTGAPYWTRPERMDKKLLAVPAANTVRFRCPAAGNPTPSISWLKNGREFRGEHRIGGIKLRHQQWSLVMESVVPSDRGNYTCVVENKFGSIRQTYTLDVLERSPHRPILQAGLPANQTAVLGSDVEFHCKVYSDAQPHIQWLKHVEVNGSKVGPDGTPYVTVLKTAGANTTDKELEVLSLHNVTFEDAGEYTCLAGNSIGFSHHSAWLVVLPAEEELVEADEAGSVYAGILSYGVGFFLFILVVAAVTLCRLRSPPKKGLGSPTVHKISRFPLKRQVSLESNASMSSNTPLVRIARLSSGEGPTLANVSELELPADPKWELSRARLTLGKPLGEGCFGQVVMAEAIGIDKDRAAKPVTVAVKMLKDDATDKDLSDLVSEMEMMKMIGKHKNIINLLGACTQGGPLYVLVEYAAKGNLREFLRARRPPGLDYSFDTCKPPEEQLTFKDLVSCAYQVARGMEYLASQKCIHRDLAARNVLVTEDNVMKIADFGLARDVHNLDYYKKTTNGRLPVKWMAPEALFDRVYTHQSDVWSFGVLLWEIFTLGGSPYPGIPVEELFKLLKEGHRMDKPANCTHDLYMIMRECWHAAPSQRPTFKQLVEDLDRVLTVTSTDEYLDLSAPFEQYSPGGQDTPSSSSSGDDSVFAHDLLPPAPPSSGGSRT
EPHB1, sequence (P54762 whole entry, looked up): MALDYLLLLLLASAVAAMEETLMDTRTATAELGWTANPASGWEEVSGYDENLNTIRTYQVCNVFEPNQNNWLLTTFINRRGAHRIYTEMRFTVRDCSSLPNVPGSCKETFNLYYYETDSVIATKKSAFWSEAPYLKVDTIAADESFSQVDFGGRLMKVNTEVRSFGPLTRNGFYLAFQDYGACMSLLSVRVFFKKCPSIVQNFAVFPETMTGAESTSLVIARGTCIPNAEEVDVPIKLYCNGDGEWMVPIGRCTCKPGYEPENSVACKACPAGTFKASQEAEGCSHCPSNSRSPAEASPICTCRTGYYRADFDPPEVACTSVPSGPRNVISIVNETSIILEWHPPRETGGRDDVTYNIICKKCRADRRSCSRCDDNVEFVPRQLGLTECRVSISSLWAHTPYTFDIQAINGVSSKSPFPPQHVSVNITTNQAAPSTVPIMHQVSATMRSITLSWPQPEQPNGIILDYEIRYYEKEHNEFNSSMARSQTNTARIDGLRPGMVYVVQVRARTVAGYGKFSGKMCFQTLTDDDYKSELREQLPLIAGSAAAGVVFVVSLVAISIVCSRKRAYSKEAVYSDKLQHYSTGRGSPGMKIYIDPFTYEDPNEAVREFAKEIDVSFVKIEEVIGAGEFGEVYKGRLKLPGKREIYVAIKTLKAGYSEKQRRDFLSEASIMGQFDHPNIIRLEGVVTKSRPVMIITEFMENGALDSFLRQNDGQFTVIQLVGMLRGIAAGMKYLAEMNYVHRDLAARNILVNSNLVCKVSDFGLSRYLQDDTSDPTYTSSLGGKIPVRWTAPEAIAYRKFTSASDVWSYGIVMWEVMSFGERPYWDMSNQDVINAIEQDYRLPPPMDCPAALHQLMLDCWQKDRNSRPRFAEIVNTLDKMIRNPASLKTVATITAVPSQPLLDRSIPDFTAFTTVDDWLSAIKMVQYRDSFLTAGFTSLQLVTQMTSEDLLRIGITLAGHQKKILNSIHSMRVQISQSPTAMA
EPHB2, sequence (P29323 whole entry, looked up): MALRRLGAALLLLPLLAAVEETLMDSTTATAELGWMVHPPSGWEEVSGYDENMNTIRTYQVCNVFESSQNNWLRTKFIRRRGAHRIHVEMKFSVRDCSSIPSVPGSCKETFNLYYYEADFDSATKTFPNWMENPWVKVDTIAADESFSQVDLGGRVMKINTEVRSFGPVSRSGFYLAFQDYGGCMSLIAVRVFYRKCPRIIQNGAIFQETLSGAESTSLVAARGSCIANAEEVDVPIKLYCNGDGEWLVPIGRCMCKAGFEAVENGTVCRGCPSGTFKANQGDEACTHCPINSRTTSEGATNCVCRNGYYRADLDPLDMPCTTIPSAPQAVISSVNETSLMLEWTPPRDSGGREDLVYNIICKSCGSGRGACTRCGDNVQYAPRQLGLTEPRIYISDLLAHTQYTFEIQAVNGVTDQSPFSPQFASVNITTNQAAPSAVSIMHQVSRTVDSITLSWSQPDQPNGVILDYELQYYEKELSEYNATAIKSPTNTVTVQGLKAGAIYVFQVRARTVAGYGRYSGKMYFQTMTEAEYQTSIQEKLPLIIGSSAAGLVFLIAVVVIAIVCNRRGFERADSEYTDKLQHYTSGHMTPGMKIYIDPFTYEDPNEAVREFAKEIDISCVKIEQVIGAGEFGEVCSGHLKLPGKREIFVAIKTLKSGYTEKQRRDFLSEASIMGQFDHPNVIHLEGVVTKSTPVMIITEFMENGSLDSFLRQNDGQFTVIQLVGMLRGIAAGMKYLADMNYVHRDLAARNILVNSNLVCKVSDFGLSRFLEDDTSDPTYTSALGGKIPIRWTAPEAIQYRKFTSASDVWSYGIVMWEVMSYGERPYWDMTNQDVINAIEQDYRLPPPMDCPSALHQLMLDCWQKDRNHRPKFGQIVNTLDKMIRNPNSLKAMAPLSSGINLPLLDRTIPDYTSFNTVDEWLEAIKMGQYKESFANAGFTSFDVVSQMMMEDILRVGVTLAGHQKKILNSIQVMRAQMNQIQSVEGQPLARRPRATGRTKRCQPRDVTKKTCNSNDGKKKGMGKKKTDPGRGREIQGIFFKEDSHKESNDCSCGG
Hck, sequence (P08631 whole entry, looked up): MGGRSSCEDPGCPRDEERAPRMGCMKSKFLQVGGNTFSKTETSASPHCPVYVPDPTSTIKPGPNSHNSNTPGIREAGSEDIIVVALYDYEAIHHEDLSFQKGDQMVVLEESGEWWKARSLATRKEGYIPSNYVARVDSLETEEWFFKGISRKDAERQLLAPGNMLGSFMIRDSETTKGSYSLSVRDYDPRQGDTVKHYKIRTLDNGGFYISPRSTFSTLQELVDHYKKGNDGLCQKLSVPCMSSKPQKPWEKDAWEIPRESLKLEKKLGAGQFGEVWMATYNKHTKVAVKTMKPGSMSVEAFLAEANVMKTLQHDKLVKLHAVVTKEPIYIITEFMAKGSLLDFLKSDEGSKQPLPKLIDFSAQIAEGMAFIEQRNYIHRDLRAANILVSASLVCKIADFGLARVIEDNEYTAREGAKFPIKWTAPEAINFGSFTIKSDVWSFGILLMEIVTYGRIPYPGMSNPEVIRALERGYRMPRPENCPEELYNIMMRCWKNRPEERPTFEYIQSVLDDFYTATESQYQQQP
Fyn, sequence (P06241 whole entry, looked up): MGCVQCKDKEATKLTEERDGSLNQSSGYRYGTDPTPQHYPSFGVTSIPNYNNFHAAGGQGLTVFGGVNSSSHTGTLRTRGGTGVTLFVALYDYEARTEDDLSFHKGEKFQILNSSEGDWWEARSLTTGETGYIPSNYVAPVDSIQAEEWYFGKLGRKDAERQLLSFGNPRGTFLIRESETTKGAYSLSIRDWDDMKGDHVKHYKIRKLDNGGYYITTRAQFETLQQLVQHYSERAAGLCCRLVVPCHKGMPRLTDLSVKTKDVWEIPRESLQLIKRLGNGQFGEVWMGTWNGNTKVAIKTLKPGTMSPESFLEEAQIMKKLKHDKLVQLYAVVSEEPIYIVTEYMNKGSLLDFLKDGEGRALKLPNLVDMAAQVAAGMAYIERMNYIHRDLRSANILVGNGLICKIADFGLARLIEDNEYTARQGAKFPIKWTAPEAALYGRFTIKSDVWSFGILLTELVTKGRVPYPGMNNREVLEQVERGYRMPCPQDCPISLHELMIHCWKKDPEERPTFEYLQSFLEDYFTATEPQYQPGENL

Row | Sequence | SH2 binding enrichment (Grb2 SH2) | SH2 binding enrichment (SHP2-C SH2) | SH2 binding enrichment (c-Src SH2) | phosphorylation enrichment (c-Abl (mouse)) | phosphorylation enrichment (AncSZ) | phosphorylation enrichment (Jak2) | phosphorylation enrichment (FGFR3) | phosphorylation enrichment (EPHB1) | phosphorylation enrichment (Fer (mouse)) | phosphorylation enrichment (Hck) | phosphorylation enrichment (Fyn) | phosphorylation enrichment (MERTK) | phosphorylation enrichment (FGFR1) | phosphorylation enrichment (EPHB2) | phosphorylation enrichment (Fes) | phosphorylation enrichment (c-Src)
1 | QSKGIYYVQLE [MGAT4B_Y262] | 0.724 | 1.71 | 1.35 | 1.1 | 1.21 | 1.47 | 3 | 1.12 | 0.763 | 2.22 | 2.5 | 8.64 | 3.51 | 0.872 | 1.42 | 3.33
2 | SGGCSYGSGGG [KRT1_Y539_G537C] | 0.782 | 0.655 | 0.462 | 0.637 | 0.803 | 0.773 | 0.561 | 0.475 | 0.462 | 0.446 | 0.381 | 0.346 | 0.402 | 0.478 | 0.916 | 0.394
3 | HNVAIYEGFAL [ACTC1_Y168_P166A_YF] | 0.877 | 1 | 0.509 | 9.06 | 1.28 | 0.972 | 0.781 | 11.1 | 17 | 9.95 | 13.3 | 8.57 | 0.56 | 11.2 | 1.3 | 9.03
4 | FRPPFYHRDCM [HGD_Y334_N337D_YF] | 1.03 | 1.06 | 1.02 | 0.735 | 0.895 | 0.942 | 0.724 | 0.611 | 0.577 | 0.507 | 0.459 | 0.471 | 0.558 | 0.659 | 1.1 | 0.477
5 | LESTLYESSVV [TRPV4_Y91] | 0.708 | 0.861 | 0.448 | 1.45 | 1.94 | 2.15 | 1.47 | 1.41 | 9.02 | 1.6 | 1.26 | 1.21 | 1.31 | 1.35 | 2.34 | 1.83
6 | FQKNSYSEELR [LMNA_Y211_I210S] | 0.847 | 0.643 | 0.413 | 0.544 | 0.626 | 0.63 | 0.499 | 0.363 | 0.365 | 0.319 | 0.456 | 0.425 | 0.401 | 0.342 | 0.686 | 0.452
7 | QMIETYFDFRL [NSMF_Y506] | 1.29 | 0.659 | 0.384 | 1.62 | 2.67 | 6.57 | 5.67 | 3.62 | 0.622 | 5.25 | 6.04 | 2.65 | 7.65 | 1.36 | 2.56 | 8.42
8 | SSDKVYAHQMV [MLH1_Y379] | 0.792 | 0.594 | 0.44 | 0.537 | 0.551 | 0.431 | 0.416 | 0.404 | 0.494 | 0.458 | 0.538 | 0.476 | 0.379 | 0.401 | 0.573 | 0.514
9 | SGVSFYINLCQ [IGF2R_Y2025_N2020S_YF] | 2.21 | 1.32 | 1.48 | 1.04 | 1.5 | 1.61 | 1.19 | 0.806 | 0.529 | 0.481 | 0.361 | 0.686 | 0.787 | 0.695 | 1.46 | 0.522
10 | SILAVYSKDNY [PANK2_Y400] | 0.681 | 0.612 | 0.855 | 0.653 | 0.925 | 0.549 | 0.524 | 0.478 | 0.425 | 0.875 | 0.756 | 0.588 | 0.451 | 0.486 | 0.664 | 1.11
11 | AMIADYMFWLG [SPATA16_Y290] | 1.16 | 1.17 | 0.806 | 1.24 | 2.24 | 3.71 | 10.8 | 7.43 | 2.01 | 1.49 | 0.727 | 2.52 | 12.2 | 15.2 | 1.31 | 1.3
12 | TRNVRYLTLDI [AKR1C2_Y305_N300T] | 0.985 | 6.49 | 1.73 | 0.557 | 0.633 | 0.684 | 0.634 | 0.787 | 0.429 | 0.487 | 0.407 | 0.372 | 0.421 | 0.521 | 0.887 | 0.384
13 | QNTGNYYDLYG [PTPN11_Y62_D61N] | 0.851 | 0.898 | 3.3 | 1.28 | 2.38 | 2.99 | 20.6 | 30.6 | 3.81 | 8.01 | 9.62 | 13.2 | 22.8 | 28.7 | 1.65 | 5.18
14 | ENRKYYMDLKE [PURA_Y156] | 0.761 | 0.657 | 0.874 | 0.588 | 0.733 | 0.734 | 0.573 | 0.563 | 0.445 | 0.543 | 0.418 | 0.466 | 0.474 | 0.473 | 0.912 | 0.331
15 | KKLEVYQSIAD [MYBPC3_Y548] | 0.792 | 1.18 | 1.47 | 0.55 | 0.878 | 0.857 | 0.75 | 0.557 | 0.502 | 1.08 | 0.725 | 0.488 | 0.499 | 0.529 | 0.882 | 0.798
